Laboratory results published in US20150196651A1 (published 2015).
One block for each binder: values may come before it. Square brackets hold non-standard residues; d marks the D form. Ends that are not written are not given here. * marks the point of attachment. Phe(F5) = N[C@@H](Cc1c(F)c(F)c(F)c(F)c1F)C(=O)O; Palmitoyl = CCCCCCCCCCCCCCCC(=O)*; Myristoyl = CCCCCCCCCCCCCC(=O)*; Nle = CCCC[C@H](N)C(=O)O; Sar = CNCC(=O)O

Experiments:
[1] = target: T1, human PrRP receptor GPR10 (human, UniProt P49683 1-370); experiment: competition with 125I-human PrRP31, CHO cells with human GPR10
T1 construct: whole, on cells; also called GPR10 human receptor transfected in CHO cells; human GPR10 receptor
T1 sequence (looked up): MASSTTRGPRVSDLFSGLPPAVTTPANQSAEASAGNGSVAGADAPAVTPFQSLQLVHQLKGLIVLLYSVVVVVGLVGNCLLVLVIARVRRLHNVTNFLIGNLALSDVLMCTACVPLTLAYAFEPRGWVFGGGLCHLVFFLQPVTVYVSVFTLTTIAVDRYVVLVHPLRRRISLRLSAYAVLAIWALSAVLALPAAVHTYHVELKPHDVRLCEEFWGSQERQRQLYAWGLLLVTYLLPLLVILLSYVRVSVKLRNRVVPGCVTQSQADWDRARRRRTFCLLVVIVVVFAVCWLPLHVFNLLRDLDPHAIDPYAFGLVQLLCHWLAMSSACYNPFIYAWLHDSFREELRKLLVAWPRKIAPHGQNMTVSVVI
Protocol: CHO cells transfected with human PrRP receptor GPR10 (Perkin Elmer, USA) were grown on 24-well plates coated with polyethyleneimine. […] The following agents were used for the experiment: binding buffer (25 mmol.1⁻¹ Tris, pH 7.4; 118 mmol.1⁻¹ NaCl, 10 mmol.1⁻¹ MgCl₂, 1 mmol.1⁻¹ CaCl₂, 5.5 mmol.1⁻¹ glucose, 0.5 mg/ml BSA), unlabeled analogs of PrRP (i.e. the analog being tested) at a final concentration between 10⁻¹¹ to 10⁻⁴ mol.1⁻¹, and radiolabeled human ¹²⁵1-PrRP31 at a final concentration of 5×10⁻¹¹ mol.1⁻¹.
(§1) Plates were incubated for 60 minutes at room temperature. After incubation, the cells were solubilized in 0.1 mol/l solution of NaOH, and the radioactivity bound to the cells was counted using a γ-counter. The experiments were performed in duplicate, and repeated at least three times.

[2] = target: T2, rat PrRP receptor in RC-4B/C cells (rat, UniProt Q64121 1-370); experiment: competition with 125I-rat PrRP31, RC-4B/C cells
T2 construct: whole, on cells; endogenous receptor of RC-4B/C cells (ATCC); also called rat receptor; GPR10 receptor expressed in rat hypophyseal cells
T2 sequence (looked up): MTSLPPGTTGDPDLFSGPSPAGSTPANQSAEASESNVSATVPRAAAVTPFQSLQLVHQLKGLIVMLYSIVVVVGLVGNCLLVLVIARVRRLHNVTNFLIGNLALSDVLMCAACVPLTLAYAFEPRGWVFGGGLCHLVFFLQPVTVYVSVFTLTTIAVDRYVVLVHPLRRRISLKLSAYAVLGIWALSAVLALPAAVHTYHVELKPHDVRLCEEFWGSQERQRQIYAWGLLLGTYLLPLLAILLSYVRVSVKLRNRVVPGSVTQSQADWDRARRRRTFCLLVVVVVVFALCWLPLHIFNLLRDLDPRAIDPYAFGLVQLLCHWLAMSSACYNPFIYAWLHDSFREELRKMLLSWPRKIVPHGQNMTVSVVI
Protocol: The rat pituitary cell line RC-4B/C (ATCC, Manassas, USA) was grown on 24-well plates which had their bottom coated with polyethyleneimine. The cells were grown to the optimal density of 300-450 thousand cells per well.
as §1

B2: analog no. 25 (peptide)
peptide: [dF][dR]GVPRIGRGTYWAPNIDPT-NH2
modifications: N-terminus assumed
SMILES: CC[C@H](C)[C@H](NC(=O)[C@H](CCCNC(=N)N)NC(=O)[C@@H]1CCCN1C(=O)[C@@H](NC(=O)CNC(=O)[C@@H](CCCNC(=N)N)NC(=O)[C@H](N)Cc1ccccc1)C(C)C)C(=O)NCC(=O)N[C@@H](CCCNC(=N)N)C(=O)NCC(=O)N[C@H](C(=O)N[C@@H](Cc1ccc(O)cc1)C(=O)N[C@@H](Cc1c[nH]c2ccccc12)C(=O)N[C@@H](C)C(=O)N1CCC[C@H]1C(=O)N[C@@H](CC(N)=O)C(=O)N[C@H](C(=O)N[C@@H](CC(=O)O)C(=O)N1CCC[C@H]1C(=O)N[C@H](C(N)=O)[C@@H](C)O)[C@@H](C)CC)[C@@H](C)O
notes: scrambled peptide; also called 25 scram
% of PrRP31 [1]: 0.06%
Ki [1]: 6290 nM
% of PrRP31 [2]: 0.09%
Ki [2]: 5200 nM

B3: analog no. 51 (peptide)
peptide: SRTHRHSMEIRTPDINPK(Palmitoyl)WYASRGIRPVGRF-NH2
modifications: N-terminus assumed
SMILES: CCCCCCCCCCCCCCCC(=O)NCCCC[C@H](NC(=O)[C@@H]1CCCN1C(=O)[C@H](CC(N)=O)NC(=O)[C@@H](NC(=O)[C@H](CC(=O)O)NC(=O)[C@@H]1CCCN1C(=O)[C@@H](NC(=O)[C@H](CCCNC(=N)N)NC(=O)[C@@H](NC(=O)[C@H](CCC(=O)O)NC(=O)[C@H](CCSC)NC(=O)[C@H](CO)NC(=O)[C@H](Cc1c[nH]cn1)NC(=O)[C@H](CCCNC(=N)N)NC(=O)[C@H](Cc1c[nH]cn1)NC(=O)[C@@H](NC(=O)[C@H](CCCNC(=N)N)NC(=O)[C@@H](N)CO)[C@@H](C)O)[C@@H](C)CC)[C@@H](C)O)[C@@H](C)CC)C(=O)N[C@@H](Cc1c[nH]c2ccccc12)C(=O)N[C@@H](Cc1ccc(O)cc1)C(=O)N[C@@H](C)C(=O)N[C@@H](CO)C(=O)N[C@@H](CCCNC(=N)N)C(=O)NCC(=O)N[C@H](C(=O)N[C@@H](CCCNC(=N)N)C(=O)N1CCC[C@H]1C(=O)N[C@H](C(=O)NCC(=O)N[C@@H](CCCNC(=N)N)C(=O)N[C@@H](Cc1ccccc1)C(N)=O)C(C)C)[C@@H](C)CC
% of PrRP31 [1]: 54%
Ki [1]: 7.24 nM

B4: analog no. 27 (peptide)
peptide: TPDINPAWYTGR[Sar]IRPVGRF-NH2
modifications: N-terminus assumed
SMILES: CC[C@H](C)[C@H](NC(=O)CN(C)C(=O)[C@H](CCCNC(=N)N)NC(=O)CNC(=O)[C@@H](NC(=O)[C@H](Cc1ccc(O)cc1)NC(=O)[C@H](Cc1c[nH]c2ccccc12)NC(=O)[C@H](C)NC(=O)[C@@H]1CCCN1C(=O)[C@H](CC(N)=O)NC(=O)[C@@H](NC(=O)[C@H](CC(=O)O)NC(=O)[C@@H]1CCCN1C(=O)[C@@H](N)[C@@H](C)O)[C@@H](C)CC)[C@@H](C)O)C(=O)N[C@@H](CCCNC(=N)N)C(=O)N1CCC[C@H]1C(=O)N[C@H](C(=O)NCC(=O)N[C@@H](CCCNC(=N)N)C(=O)N[C@@H](Cc1ccccc1)C(N)=O)C(C)C
% of PrRP31 [1]: 86%
Ki [1]: 4.51 nM
% of PrRP31 [2]: 62%
Ki [2]: 7.94 nM

Binder: SRAHQHS[Nle]ETRTPDINPAWYTGRGIRPVGRF-NH2 [analog no. 3]
% of PrRP31 [1]: 203%
Ki [1]: 1.92 nM
% of PrRP31 [2]: 385%
Ki [2]: 1.28 nM

More lines, in order of falling Ki [1], values ahead:

% of PrRP31 [1]: 45%
Ki [1]: 8.59 nM
% of PrRP31 [2]: 51%
Ki [2]: 9.69 nM
Binder: SRAHQHS[Nle]ETRTPDINPAWYTGRGIRPVGR[Phe(F5)]-NH2 [analog no. 21]

% of PrRP31 [1]: 100%
Ki [1]: 3.89 nM
% of PrRP31 [2]: 100%
Ki [2]: 4.93 nM
Binder: SRAHQHSMETRTPDINPAWYTGRGIRPVGRF-NH2 (synthetic peptide) [Rat PrRP31]

% of PrRP31 [1]: 125%
Ki [1]: 3.12 nM
% of PrRP31 [2]: 1540%
Ki [2]: 0.32 nM
B1: analog no. 28 (peptide)
peptide: Myristoyl-TPDINPAWYTGR[Sar]IRPVGRF-NH2
SMILES: CCCCCCCCCCCCCC(=O)N[C@H](C(=O)N1CCC[C@H]1C(=O)N[C@@H](CC(=O)O)C(=O)N[C@H](C(=O)N[C@@H](CC(N)=O)C(=O)N1CCC[C@H]1C(=O)N[C@@H](C)C(=O)N[C@@H](Cc1c[nH]c2ccccc12)C(=O)N[C@@H](Cc1ccc(O)cc1)C(=O)N[C@H](C(=O)NCC(=O)N[C@@H](CCCNC(=N)N)C(=O)N(C)CC(=O)N[C@H](C(=O)N[C@@H](CCCNC(=N)N)C(=O)N1CCC[C@H]1C(=O)N[C@H](C(=O)NCC(=O)N[C@@H](CCCNC(=N)N)C(=O)N[C@@H](Cc1ccccc1)C(N)=O)C(C)C)[C@@H](C)CC)[C@@H](C)O)[C@@H](C)CC)[C@@H](C)O

% of PrRP31 [1]: 193%
Ki [1]: 2.02 nM
% of PrRP31 [2]: 152%
Ki [2]: 3.25 nM
B6: analog no. 23 (peptide)
peptide: SRAHQHS[Nle]ETRTPDINPAWYTGRGIRPVGRY-NH2
modifications: N-terminus assumed
SMILES: CCCC[C@H](NC(=O)[C@H](CO)NC(=O)[C@H](Cc1c[nH]cn1)NC(=O)[C@H](CCC(N)=O)NC(=O)[C@H](Cc1c[nH]cn1)NC(=O)[C@H](C)NC(=O)[C@H](CCCNC(=N)N)NC(=O)[C@@H](N)CO)C(=O)N[C@@H](CCC(=O)O)C(=O)N[C@H](C(=O)N[C@@H](CCCNC(=N)N)C(=O)N[C@H](C(=O)N1CCC[C@H]1C(=O)N[C@@H](CC(=O)O)C(=O)N[C@H](C(=O)N[C@@H](CC(N)=O)C(=O)N1CCC[C@H]1C(=O)N[C@@H](C)C(=O)N[C@@H](Cc1c[nH]c2ccccc12)C(=O)N[C@@H](Cc1ccc(O)cc1)C(=O)N[C@H](C(=O)NCC(=O)N[C@@H](CCCNC(=N)N)C(=O)NCC(=O)N[C@H](C(=O)N[C@@H](CCCNC(=N)N)C(=O)N1CCC[C@H]1C(=O)N[C@H](C(=O)NCC(=O)N[C@@H](CCCNC(=N)N)C(=O)N[C@@H](Cc1ccc(O)cc1)C(N)=O)C(C)C)[C@@H](C)CC)[C@@H](C)O)[C@@H](C)CC)[C@@H](C)O)[C@@H](C)O

% of PrRP31 [1]: 203%
Ki [1]: 1.92 nM
% of PrRP31 [2]: 966%
Ki [2]: 0.51 nM
Binder: Palmitoyl-SRAHQHS[Nle]ETRTPDINPAWYTGRGIRPVGR[Phe(F5)]-NH2 [analog no. 22]

% of PrRP31 [1]: 248%
Ki [1]: 1.57 nM
% of PrRP31 [2]: 1120%
Ki [2]: 0.44 nM
B5: analog no. 24 (peptide)
peptide: Palmitoyl-SRAHQHS[Nle]ETRTPDINPAWYTGRGIRPVGRY-NH2
SMILES: CCCCCCCCCCCCCCCC(=O)N[C@@H](CO)C(=O)N[C@@H](CCCNC(=N)N)C(=O)N[C@@H](C)C(=O)N[C@@H](Cc1c[nH]cn1)C(=O)N[C@@H](CCC(N)=O)C(=O)N[C@@H](Cc1c[nH]cn1)C(=O)N[C@@H](CO)C(=O)N[C@@H](CCCC)C(=O)N[C@@H](CCC(=O)O)C(=O)N[C@H](C(=O)N[C@@H](CCCNC(=N)N)C(=O)N[C@H](C(=O)N1CCC[C@H]1C(=O)N[C@@H](CC(=O)O)C(=O)N[C@H](C(=O)N[C@@H](CC(N)=O)C(=O)N1CCC[C@H]1C(=O)N[C@@H](C)C(=O)N[C@@H](Cc1c[nH]c2ccccc12)C(=O)N[C@@H](Cc1ccc(O)cc1)C(=O)N[C@H](C(=O)NCC(=O)N[C@@H](CCCNC(=N)N)C(=O)NCC(=O)N[C@H](C(=O)N[C@@H](CCCNC(=N)N)C(=O)N1CCC[C@H]1C(=O)N[C@H](C(=O)NCC(=O)N[C@@H](CCCNC(=N)N)C(=O)N[C@@H](Cc1ccc(O)cc1)C(N)=O)C(C)C)[C@@H](C)CC)[C@@H](C)O)[C@@H](C)CC)[C@@H](C)O)[C@@H](C)O
